Test results from patent CN114316037A.

Substrate: O型口蹄疫病毒灭活抗原 (Foot-and-mouth disease virus, serotype O (strain not stated))

B1: 单克隆抗体m19 (O型口蹄疫病毒结构蛋白的单克隆抗体m19) (antibody, V domains shown)
VH: QVQLQQPGSELVRPGASVNLSCKASGYTFPSYWMHWVKQRPGQGLEWIGNIFPDGGFTNYDENFKSRATLTVDTSSSTAYMQLSSLTSEDSAVYYCTTIYDYVVGVGAMDYWGQGTSVTVSS
VL: DIVMTQSPAIMSASPGEKVTITCSASSSISYMYWFQQKTGTSPKLWIYKTSDLASGVPARFSGSGSGTSYSLTISRMEAEDAATYYCQQRNSYTFGGGTKLELK
Work on B1 yielded a 最佳使用浓度 (concentration giving OD450 of 1.6) of 7 µg/mL.
